Data: article PMC11931385, “Structural and functional analysis of cancer-associated missense variants in the retinoblastoma protein pocket domain” (The Journal of Biological Chemistry, 2025)
Changes are numbered by the printed parent chain. Names may count otherwise. No end group written: not given here. TMR = tetramethyl rhodamine dye

T1: Rb^P S588F (human, UniProt P06400 380-788, S588F)
T1 construct: also called variant 34
T1 sequence (looked up): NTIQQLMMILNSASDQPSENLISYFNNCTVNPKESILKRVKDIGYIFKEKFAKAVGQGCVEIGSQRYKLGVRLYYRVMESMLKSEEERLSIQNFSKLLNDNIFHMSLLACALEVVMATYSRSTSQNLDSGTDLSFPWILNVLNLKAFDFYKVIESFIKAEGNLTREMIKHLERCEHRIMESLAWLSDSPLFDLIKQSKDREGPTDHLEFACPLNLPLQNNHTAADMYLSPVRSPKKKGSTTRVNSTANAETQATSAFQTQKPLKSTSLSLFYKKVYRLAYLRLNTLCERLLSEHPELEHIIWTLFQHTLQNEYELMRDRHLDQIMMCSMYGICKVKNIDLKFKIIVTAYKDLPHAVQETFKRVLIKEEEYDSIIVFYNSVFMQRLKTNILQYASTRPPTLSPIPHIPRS

T2: Rb^P S612P (human, UniProt P06400 380-788, S612P)
T2 construct: also called variant 39
T2 sequence (looked up): T1 sequence (looked up) with F209S, S233P

T3: Rb^P T664A (human, UniProt P06400 380-788, T664A)
T3 construct: also called variant 50
T3 sequence (looked up): T1 sequence (looked up) with F209S, T285A

T4: Rb^P V754G (human, UniProt P06400 380-788, V754G)
T4 construct: also called variant 73
T4 sequence (looked up): T1 sequence (looked up) with F209S, V375G

T5: Rb^P K462E (human, UniProt P06400 380-788, K462E)
T5 construct: also called variant 8
T5 sequence (looked up): T1 sequence (looked up) with K83E, F209S

B1: TMR-E2F1^TD, peptide of the E2F1 transactivation domain (peptide)
peptide: {TMR}-GEGIRDLFDCDFGDLTPLD
notes: also called E2F^TD; source: synthetic peptide, bought: GenScript
B2: TMR-E7^LxCxE, LxCxE peptide of the E7 oncoprotein from HPV (peptide)
peptide: DLYCYEQLN
modifications: also: TMR label, position not given here
notes: source: synthetic peptide, bought: GenScript

Legend:
Experiment in all cases: fluorescence polarisation; 25 °C; unlabeled Rb^P titrated against 1.5 nM TMR-E2F1^TD or 7.5 nM TMR-E7^LxCxE; 25 mM Tris pH 8.0, 200 mM NaCl, 1 mM DTT, 0.1% Tween-20; 2 min incubation; quadratic fit; apparent Kd for the variants, Kd for WT
Settings in all cases: both partners purified
Rb^P S588F = target: T1, Rb^P S588F
Rb^P S612P = target: T2, Rb^P S612P
Rb^P T664A = target: T3, Rb^P T664A
Rb^P V754G = target: T4, Rb^P V754G
Rb^P K462E = target: T5, Rb^P K462E

Row | Binder | Kd (Rb^P S588F) | Kd (Rb^P S612P) | Kd (Rb^P T664A) | Kd (Rb^P V754G) | Kd (Rb^P K462E)
1 | B1 | 36 nM | 32 nM | 15 nM | 20 nM | 27 nM
2 | B2 | 5 nM | 7 nM | 8 nM | 7 nM | 11 nM
